Measurements taken from patent US20230015590A1 (JIANGSU ALPHAMAB BIOPHARMACEUTICALS, published 2023).

Biological target: T1, human PD-L1 (WT) (human, UniProt Q9NZQ7 19-127, limits assumed)
T1 construct: also called human PD-L1 N-terminal IgV domain
Experiment: affinity measurement, method not stated

T1 sequence (Q9NZQ7 19-127 limits assumed): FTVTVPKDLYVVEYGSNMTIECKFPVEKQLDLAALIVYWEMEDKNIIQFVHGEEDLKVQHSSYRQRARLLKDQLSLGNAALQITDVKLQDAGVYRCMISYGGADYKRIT

B1: PD-L1 ISVD-9 (VHH)
VHH: QVQLVESGGGLVQPGGSLRLSCAASGKMSSRRCMAWFRQAPGKERERVAKLLTTSGSTYLADSVKGRFTISRDNSKNTVYLQMNSLRAEDTAVYYCAADSFEDPTCTLVTSSGAFQYWGQGTLVTVSS
notes: also called ISVD specific for PD-L1; aPDL1.9
Kd: 5.92 nM
